From patent publication US20230127946A1 (SUZHOU PRO HEAL PHARMACEUTICALS TECHNOLOGY, published 2023)

Assays:
Human IGF-1R protein = biological target: T1, Human IGF-1R protein (human, UniProt P08069 31-932); assay: BLI (Octet RED96), antibody captured on AHC biosensor, IGF-1R in solution, 1:1 model
T1 construct: Bought protein; also called human IGF-1R (ARCO, No. IGR-H5229)
Text: After 14 days of culture, the culture supernatant was collected by centrifugation, and purify the antibodies with affinity purification column. Octet RED96 protein interaction workstation was used to detect the affinity of the above purified antibodies with human IGF-1R (Human IGF-1R, ARCO, No. IGR-H5229) separately. Biosensor AHC (18-5060) was used to capture the samples, and then the captured samples were compared with human IGF-1R. The dynamics of binding and dissociation of […] were detected. Dynamics uses 1:1 combined model for fitting analysis. The brief action steps are: protein loading for 200 s, binding for 180 s, dissociation for 300 s, regeneration for 30 s.

IGF-1R on MCF-7 cells = IGF-1R on MCF-7 cells (UniProt P08069 31-1367, limits assumed); assay: cell-based or functional assay
IGF-1R on MCF-7 cells, sequence (P08069 31-1367 limits assumed): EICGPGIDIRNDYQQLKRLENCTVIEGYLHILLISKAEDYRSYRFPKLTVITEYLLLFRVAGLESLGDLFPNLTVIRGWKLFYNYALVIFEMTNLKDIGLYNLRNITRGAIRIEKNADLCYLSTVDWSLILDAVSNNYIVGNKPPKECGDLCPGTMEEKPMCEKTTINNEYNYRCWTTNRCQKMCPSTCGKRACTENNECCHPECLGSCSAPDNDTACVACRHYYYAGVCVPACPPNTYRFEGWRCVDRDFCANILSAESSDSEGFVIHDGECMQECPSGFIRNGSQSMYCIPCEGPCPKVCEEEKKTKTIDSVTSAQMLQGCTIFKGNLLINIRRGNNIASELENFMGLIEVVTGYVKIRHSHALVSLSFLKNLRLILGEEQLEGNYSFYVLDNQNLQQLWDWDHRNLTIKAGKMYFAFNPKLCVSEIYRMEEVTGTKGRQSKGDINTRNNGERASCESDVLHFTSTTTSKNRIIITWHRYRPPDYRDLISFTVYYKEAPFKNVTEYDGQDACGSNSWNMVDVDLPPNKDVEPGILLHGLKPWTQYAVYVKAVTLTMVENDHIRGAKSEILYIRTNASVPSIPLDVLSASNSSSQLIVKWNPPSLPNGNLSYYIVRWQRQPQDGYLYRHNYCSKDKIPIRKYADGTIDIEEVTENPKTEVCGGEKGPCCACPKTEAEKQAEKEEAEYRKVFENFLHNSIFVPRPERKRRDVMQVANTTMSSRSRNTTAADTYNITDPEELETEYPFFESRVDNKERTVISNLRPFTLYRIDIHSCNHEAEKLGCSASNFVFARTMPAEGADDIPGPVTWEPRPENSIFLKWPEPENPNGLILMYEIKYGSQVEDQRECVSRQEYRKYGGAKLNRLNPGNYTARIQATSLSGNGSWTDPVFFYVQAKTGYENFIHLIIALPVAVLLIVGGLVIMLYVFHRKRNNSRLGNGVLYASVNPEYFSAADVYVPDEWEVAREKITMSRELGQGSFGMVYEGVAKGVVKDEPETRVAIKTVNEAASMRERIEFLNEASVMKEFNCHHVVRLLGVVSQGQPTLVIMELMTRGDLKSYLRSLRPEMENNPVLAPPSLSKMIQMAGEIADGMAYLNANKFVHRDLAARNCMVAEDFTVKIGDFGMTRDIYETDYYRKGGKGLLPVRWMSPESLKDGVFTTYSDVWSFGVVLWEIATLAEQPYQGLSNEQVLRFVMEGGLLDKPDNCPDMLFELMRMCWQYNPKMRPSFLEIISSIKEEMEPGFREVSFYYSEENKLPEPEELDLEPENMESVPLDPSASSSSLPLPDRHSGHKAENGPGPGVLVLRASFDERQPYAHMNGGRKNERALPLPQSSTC

T1 sequence (P08069 31-932 limits assumed): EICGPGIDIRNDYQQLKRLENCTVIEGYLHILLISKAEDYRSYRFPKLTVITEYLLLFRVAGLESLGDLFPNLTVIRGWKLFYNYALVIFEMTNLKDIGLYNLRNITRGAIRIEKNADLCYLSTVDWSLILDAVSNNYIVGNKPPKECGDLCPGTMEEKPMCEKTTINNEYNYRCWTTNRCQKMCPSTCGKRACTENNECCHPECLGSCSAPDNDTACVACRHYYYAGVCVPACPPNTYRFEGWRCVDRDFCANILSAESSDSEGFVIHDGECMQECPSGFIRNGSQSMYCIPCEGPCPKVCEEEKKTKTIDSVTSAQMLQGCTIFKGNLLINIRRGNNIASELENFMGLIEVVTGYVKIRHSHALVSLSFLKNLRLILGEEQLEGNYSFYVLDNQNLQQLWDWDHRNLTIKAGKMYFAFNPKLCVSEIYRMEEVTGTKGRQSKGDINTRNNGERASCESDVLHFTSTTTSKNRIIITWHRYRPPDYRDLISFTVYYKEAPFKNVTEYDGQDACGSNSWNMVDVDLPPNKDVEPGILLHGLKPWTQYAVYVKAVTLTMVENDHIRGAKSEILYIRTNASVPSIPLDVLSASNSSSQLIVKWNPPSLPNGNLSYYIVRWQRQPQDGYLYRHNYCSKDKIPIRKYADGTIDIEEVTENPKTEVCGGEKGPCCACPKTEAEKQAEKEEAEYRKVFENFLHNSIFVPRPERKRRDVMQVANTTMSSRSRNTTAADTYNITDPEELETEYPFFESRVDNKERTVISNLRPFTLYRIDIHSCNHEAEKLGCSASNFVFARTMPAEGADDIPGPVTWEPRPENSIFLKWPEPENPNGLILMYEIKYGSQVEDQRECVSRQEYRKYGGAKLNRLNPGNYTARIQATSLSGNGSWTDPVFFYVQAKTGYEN

B1: PHP1003-1 (antibody, human IgG1, kappa, L234A L235A, V domains shown)
VH: QVQLQESGPGLVKPSGTLSLTCAVSGGSISSSNWWSWVRQPPGKGLEWIGEIYHSGSTNYNPSLKSRVTISVDKSKNQFSLKLSSVTAADTAVYYCARWTGRTDAFDIWGQGTMVTVSS
VL: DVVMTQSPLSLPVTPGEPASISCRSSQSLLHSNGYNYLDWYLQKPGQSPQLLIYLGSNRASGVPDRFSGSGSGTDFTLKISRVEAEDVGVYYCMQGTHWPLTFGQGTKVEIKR
notes: Variable and constant regions are directly spliced; also called anti-IGF-1R antibody PHP1003-1
B1 showed a Kd (Human IGF-1R protein) of 1.27 nM, a koff (Human IGF-1R protein) of 0.000347 s⁻¹ and a kon (Human IGF-1R protein) of 274000 M⁻¹ s⁻¹. For the same binder, the “IC50 of inhibition of MCF-7 cell proliferation (CCK8, OD450)” value (“IC50 of inhibition … (CCK8, OD450)” below) (IGF-1R on MCF-7 cells) was 2.37 µg/mL.

B2: PHP1003-2 (antibody, human IgG1, kappa, L234A L235A, V domains shown)
VH: EVQLVQSGGGLVKPGGSLRLSCAASGFTFSSFAMHWVRQAPGKGLEWISVIDTRGATYYADSVKGRFTISRDNAKNSLYLQMNSLRAEDTAVYYCARLGNFYYGMDVWGQGTTVTVSS
VL: EIVLTQSPGTLSVSPGERATLSCRASQSIGSSLHWYQQKPGQAPRLLIKYASQSLSGIPDRFSGSGSGTDFTLTISRLEPEDFAVYYCHQSSRLPHTFGQGTKVEIKR
notes: Variable and constant regions are directly spliced
B2 was tested, and the Kd (Human IGF-1R protein) was 3.83 nM, the koff (Human IGF-1R protein) was 0.000874 s⁻¹ and the kon (Human IGF-1R protein) was 228000 M⁻¹ s⁻¹. The “IC50 of inhibition … (CCK8, OD450)” value (IGF-1R on MCF-7 cells) was 3.93 µg/mL.

B3: PHP1003-5 (antibody, human IgG1, kappa, L234A L235A, V domains shown)
VH: EVQLLESGGGLVQPGGSLRLSCTASGFTFSSYAMNWVRQAPGKGLEWVSAISGSGGTTFYADSVKGRFTISRDNSRTTLYLQMNSLRAEDTAVYYCAKDLGWSDSYYYYYGMDVWGQGTTVTVSS
VL: DIQMTQFPSSLSASVGDRVTITCRASQGIRNDLGWYQQKPGKAPKRLIYAASRLHRGVPSRFSGSGSGTEFTLTISSLQPEDFATYYCLQHNSYPCSFGQGTKLEIKR
notes: as for B2
Work on B3 yielded a Kd (Human IGF-1R protein) of 0.701 nM, a koff (Human IGF-1R protein) of 0.000396 s⁻¹ and a kon (Human IGF-1R protein) of 565000 M⁻¹ s⁻¹. The “IC50 of inhibition … (CCK8, OD450)” value (IGF-1R on MCF-7 cells) was 0.96 µg/mL.

B4: PHP1003-7 (antibody, human IgG1, kappa, L234A L235A, V domains shown)
VH: QVQLQESGPGLVKPSETLSLTCTVSGYSITGGYLWNWIRQPPGKGLEWIGYISYDGTNNYKPSLKDRVTISRDTSKNQFSLKLSSVTAADTAVYYCARYGRVFFDYWGQGTLVTVSS
VL: DIVMTQSPLSLPVTPGEPASISCRSSQSIVHSNGNTYLQWYLQKPGQSPQLLIYKVSNRLYGVPDRFSGSGSGTDFTLKISRVEAEDVGVYYCFQGSHVPWTFGQGTKVEIKR
notes: as for B2
Binder B4 has a Kd (Human IGF-1R protein) of 8.98 nM, a koff (Human IGF-1R protein) of 0.000883 s⁻¹ and a kon (Human IGF-1R protein) of 98300 M⁻¹ s⁻¹. For the same binder, the “IC50 of inhibition … (CCK8, OD450)” value (IGF-1R on MCF-7 cells) was 2.14 µg/mL.

B5: PHP1003-6 (antibody, human IgG1, kappa, L234A L235A, V domains shown)
VH: QVQLQESGGGVVQPGRSLRLSCSASGFTFSDYYMYWVRQAPGKGLEWVAYITNYGGSTYYPDTVKGRFTISRDNAKNTLFLQMDSLRPEDTGVYFCARQSNYDYDGWFAYWGQGTPVTVSS
VL: DIQLTQSPSSLSASVGDRVTITCKASQEVGTAVAWYQQKPGKAPKLLIYWASTRHTGVPSRFSGSGSGTDFTFTISSLQPEDIATYFCQQYSNYPLTFGQGTKVEIKR
notes: as for B2
Binder B5 has a Kd (Human IGF-1R protein) of 1.12 nM, a koff (Human IGF-1R protein) of 0.000472 s⁻¹ and a kon (Human IGF-1R protein) of 422000 M⁻¹ s⁻¹. For the same binder, the “IC50 of inhibition … (CCK8, OD450)” value (IGF-1R on MCF-7 cells) was 3.81 µg/mL.

B6: PHP1003-4 (antibody, human IgG1, kappa, L234A L235A, V domains shown)
VH: EVQLVQSGAEVKKPGSSVKVSCKASGGTFSSYAISWVRQAPGQGLEWMGGIIPIFGTANYAQKFQGRVTITADKSTSTAYMELSSLRSEDTAVYYCARAPLRFLEWSTQDHYYYYYMDVWGKGTTVTVSS
VL: SSELTQDPAVSVALGQTVRITCQGDSLRSYYATWYQQKPGQAPILVIYGENKRPSGIPDRFSGSSSGNTASLTITGAQAEDEADYYCKSRDGSGQHLVFGGGTKLTVLR
notes: as for B2
B6 showed a Kd (Human IGF-1R protein) of 5.91 nM, a koff (Human IGF-1R protein) of 0.00146 s⁻¹ and a kon (Human IGF-1R protein) of 247000 M⁻¹ s⁻¹. The “IC50 of inhibition … (CCK8, OD450)” value (IGF-1R on MCF-7 cells) was 4.05 µg/mL.
